What was measured:
[1] = biological target: hMSH3 (recombinant, subunit of purified hMutSβ) (human, UniProt P20585 1-1137); test: far-Western
[2] = biological target: T1, hMSH6 (recombinant, subunit of purified hMutSα) (human, UniProt P52701 1-1360); test: pull-down
[3] = biological target: T1, hMSH6 (recombinant, subunit of purified …); test: far-Western

T1 sequence (P52701 whole entry): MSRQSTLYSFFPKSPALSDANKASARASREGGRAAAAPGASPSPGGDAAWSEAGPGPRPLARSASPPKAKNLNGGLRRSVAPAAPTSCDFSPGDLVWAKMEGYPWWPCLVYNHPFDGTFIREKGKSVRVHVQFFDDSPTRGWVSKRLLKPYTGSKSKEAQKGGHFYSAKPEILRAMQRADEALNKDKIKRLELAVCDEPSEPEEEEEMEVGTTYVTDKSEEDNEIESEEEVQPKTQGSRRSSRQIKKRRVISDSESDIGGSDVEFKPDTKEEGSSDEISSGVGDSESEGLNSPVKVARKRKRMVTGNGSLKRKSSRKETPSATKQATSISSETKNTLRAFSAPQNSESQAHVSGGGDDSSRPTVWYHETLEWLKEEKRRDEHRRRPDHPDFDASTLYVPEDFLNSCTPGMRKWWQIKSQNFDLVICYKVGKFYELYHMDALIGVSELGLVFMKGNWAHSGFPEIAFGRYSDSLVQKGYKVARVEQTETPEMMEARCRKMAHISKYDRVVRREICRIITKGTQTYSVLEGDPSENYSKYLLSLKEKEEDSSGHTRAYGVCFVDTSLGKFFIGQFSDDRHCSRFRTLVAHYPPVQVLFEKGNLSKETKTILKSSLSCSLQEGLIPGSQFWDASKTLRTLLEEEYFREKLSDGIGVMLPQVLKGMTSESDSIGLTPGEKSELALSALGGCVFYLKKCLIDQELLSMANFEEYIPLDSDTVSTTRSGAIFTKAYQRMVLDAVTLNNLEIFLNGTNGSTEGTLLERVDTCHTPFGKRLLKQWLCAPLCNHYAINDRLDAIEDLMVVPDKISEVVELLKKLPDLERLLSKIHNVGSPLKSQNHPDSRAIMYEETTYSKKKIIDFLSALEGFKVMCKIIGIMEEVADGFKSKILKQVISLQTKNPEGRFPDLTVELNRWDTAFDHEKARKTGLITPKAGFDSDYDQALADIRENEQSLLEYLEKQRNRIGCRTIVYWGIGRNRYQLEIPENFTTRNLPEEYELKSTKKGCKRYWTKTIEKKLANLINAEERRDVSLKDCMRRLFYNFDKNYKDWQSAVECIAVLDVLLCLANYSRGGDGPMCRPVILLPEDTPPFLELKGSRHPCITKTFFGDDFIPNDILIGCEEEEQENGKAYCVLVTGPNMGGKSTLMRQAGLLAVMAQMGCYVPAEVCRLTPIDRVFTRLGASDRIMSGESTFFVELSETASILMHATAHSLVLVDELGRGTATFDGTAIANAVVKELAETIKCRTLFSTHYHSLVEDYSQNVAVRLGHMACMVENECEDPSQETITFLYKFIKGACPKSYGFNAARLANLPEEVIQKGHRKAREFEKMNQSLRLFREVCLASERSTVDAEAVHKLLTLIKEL
Sequence of hMSH3 (recombinant, subunit of purified hMutSβ) (P20585 whole entry): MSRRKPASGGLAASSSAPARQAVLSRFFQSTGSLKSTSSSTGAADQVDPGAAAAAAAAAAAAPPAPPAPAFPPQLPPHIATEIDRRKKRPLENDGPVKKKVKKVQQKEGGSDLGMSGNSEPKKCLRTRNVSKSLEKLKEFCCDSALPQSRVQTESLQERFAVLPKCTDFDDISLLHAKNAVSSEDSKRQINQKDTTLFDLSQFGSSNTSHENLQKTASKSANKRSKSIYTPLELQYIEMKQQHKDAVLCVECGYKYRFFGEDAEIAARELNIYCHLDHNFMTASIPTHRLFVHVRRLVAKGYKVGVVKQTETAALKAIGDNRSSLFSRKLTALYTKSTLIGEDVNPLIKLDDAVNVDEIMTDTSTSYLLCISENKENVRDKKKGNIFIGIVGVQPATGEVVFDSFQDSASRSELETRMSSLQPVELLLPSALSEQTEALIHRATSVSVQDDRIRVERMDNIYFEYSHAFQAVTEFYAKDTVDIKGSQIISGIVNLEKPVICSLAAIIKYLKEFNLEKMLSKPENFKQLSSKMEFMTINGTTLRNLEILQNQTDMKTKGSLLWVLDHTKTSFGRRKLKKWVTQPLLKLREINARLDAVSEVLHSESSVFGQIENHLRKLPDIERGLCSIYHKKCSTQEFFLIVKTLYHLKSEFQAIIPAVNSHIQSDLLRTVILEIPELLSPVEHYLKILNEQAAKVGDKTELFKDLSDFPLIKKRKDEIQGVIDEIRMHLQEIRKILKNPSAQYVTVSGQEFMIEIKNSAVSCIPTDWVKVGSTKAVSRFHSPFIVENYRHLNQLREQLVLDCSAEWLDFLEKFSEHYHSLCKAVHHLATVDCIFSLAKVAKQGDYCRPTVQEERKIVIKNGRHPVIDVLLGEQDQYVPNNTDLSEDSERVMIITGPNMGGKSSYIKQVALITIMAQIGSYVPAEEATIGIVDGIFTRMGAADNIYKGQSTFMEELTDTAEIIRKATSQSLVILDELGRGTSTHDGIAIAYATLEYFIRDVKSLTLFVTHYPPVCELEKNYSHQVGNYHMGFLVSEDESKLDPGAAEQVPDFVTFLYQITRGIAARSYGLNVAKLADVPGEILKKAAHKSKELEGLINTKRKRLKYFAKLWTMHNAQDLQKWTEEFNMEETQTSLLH

| binding result [1] | binding result [2] | binding result [3] | Binder |
| --- | --- | --- | --- |
| binds | binds | – | GST-hHus1 (natural protein, human, UniProt O60921 1-280, looked up) MKFRAKIVDGACLNHFTRISNMIAKLAKTCTLRISPDKLNFILCDKLANGGVSMWCELEQENFFNEFQMEGVSAENNEIYLELTSENLSRALKTAQNARALKIKLTNKHFPCLTVSVELLSMSSSSRIVTHDIPIKVIPRKLWKDLQEPVVPDPDVSIYLPVLKTMKSVVEKMKNISNHLVIEANLDGELNLKIETELVCVTTHFKDLGNPPLASESTHEDRNVEHMAEVHIDIRKLLQFLAGQQVNPTKALCNIVNNKMVHFDLLHEDVSLQYFIPALS |
| – | – | binds | GST-hRad1 (natural protein, human, UniProt O60671 1-282, looked up) MPLLTQQIQDEDDQYSLVASLDNVRNLSTILKAIHFREHATCFATKNGIKVTVENAKCVQANAFIQAGIFQEFKVQEESVTFRINLTVLLDCLSIFGSSPMPGTLTALRMCYQGYGYPLMLFLEEGGVVTVCKINTQEPEETLDFDFCSTNVINKIILQSEGLREAFSELDMTSEVLQITMSPDKPYFRLSTFGNAGSSHLDYPKDSDLMEAFHCNQTQVNRYKISLLKPSTKALVLSCKVSIRTDNRGFLSLQYMIRNEDGQICFVEYYCCPDEEVPESES |
| – | – | binds | GST-hRad9 (natural protein, human, UniProt Q99638 1-391, looked up) MKCLVTGGNVKVLGKAVHSLSRIGDELYLEPLEDGLSLRTVNSSRSAYACFLFAPLFFQQYQAATPGQDLLRCKILMKSFLSVFRSLAMLEKTVEKCCISLNGRSSRLVVQLHCKFGVRKTHNLSFQDCESLQAVFDPASCPHMLRAPARVLGEAVLPFSPALAEVTLGIGRGRRVILRSYHEEEADSTAKAMVTEMCLGEEDFQQLQAQEGVAITFCLKEFRGLLSFAESANLNLSIHFDAPGRPAIFTIKDSLLDGHFVLATLSDTDSHSQDLGSPERHQPVPQLQAHSTPHPDDFANDDIDSYMIAMETTIGNEGSRVLPSISLSPGPQPPKSPGPHSEEEDEAEPSTVPGTPPPKKFRSLFFGSILAPVRSPQGPSPVLAEDSEGEG |
